Measured values: patent US20210079067A1 (US Dept. of Health and Human Services, published 2021)

Experiments:
[1] = molecular target: T1, mucin-domain-deleted Zaire ebolavirus GP (Zaire ebolavirus, UniProt Q05320 33-650); assay: pH 7.4
[2] = molecular target: T1, mucin-domain-deleted Zaire ebolavirus GP; assay: biolayer interferometry, Fab, pH 7.4, 1:1 model; Fab, BLI, pH 7.4
[3] = molecular target: T1, mucin-domain-deleted Zaire ebolavirus GP; assay: biolayer interferometry, Fab, pH 5.3, 1:1 model; Fab, BLI, pH 5.3
[4] = molecular target: T1, mucin-domain-deleted Zaire ebolavirus GP; assay: pH 5.3
[5] = molecular target: T1, mucin-domain-deleted Zaire ebolavirus GP; assay: biolayer interferometry, mAb, pH 7.4, 1:2 bivalent model
[6] = molecular target: T1, mucin-domain-deleted Zaire ebolavirus GP
[7] = molecular target: T1, mucin-domain-deleted Zaire ebolavirus GP; assay: biolayer interferometry, mAb, pH 7.4, 1:2 bivalent model (apparent)

B1: S1-4-A09 Fab (Fab, V domains shown)
VH: QVQLQESGPGLVKPSETLSLTCVVSGGILSSFYWNWIRQPPGKGLEWIGNIYYSGSPNYNASFQSRVAISVDTSKNQISLNLKSVTAADTAMYYCVRASRAYLWGSYRPTALDLWGQGSLVTVSS
VL: SYELTQPPSVSVSPGQTATITCSGDKLGDKYTSWFQQRPGQSPLLVIYQDNKRPSGLPARFSGSNSGNTATLTISGTQAMDEADYLCQVWDSGAVFGGGTKLTVL
Binder B1 has a koff [1] of 0.000136 s⁻¹, a kon [1] of 131000 M⁻¹ s⁻¹ and a Kd [2] of 1.04 nM. The Kd [3] was 2.1 nM, the koff [4] was 0.000179 s⁻¹ and the kon [4] was 85200 M⁻¹ s⁻¹.

B2: mAb100 (antibody, V domains shown)
VH: QVQLQESGPGLVKPSDTLSLTCTVSGGSLSSFYWSWIRQPPGKGLEWIGYIYYSGSPNYSPSLESRVTMSVDTTRNQISLKLDSVTAADTAVYYCVRASRSYYWGSYRPTAFDSWGQGTLVTVSS
VL: SYELTQPLSVSVSPGQTAIFTCSGDNLGDKYVCWFQQRPGQSPMLLIYQDNKRPSGIPERFSGSNSGNTATLTISGTQSTDEADYYCQTWDSTVVFGGGTKLTVL
In the case of B2, the koff [5] is reported as 8.91e-06 s⁻¹, the kon [5] is reported as 143000 M⁻¹ s⁻¹ and the “EC50 (read off the curve)” value [6] is reported as about 0.01 µg/mL. The Kd [7] was 0.0628 nM.
